T1: CD20 (Homo sapiens, UniProt P11836)
T1 chain: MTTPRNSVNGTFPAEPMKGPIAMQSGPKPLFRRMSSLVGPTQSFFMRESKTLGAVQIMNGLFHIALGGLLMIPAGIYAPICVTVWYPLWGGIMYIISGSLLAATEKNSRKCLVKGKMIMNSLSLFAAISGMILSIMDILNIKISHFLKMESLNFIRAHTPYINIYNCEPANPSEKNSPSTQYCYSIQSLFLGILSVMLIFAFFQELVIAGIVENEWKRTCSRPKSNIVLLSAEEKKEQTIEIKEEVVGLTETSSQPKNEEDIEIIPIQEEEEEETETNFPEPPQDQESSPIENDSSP

B1: rituximab (antibody, V domains shown)
VH: QVQLQQPGAELVKPGASVKMSCKASGYTFTSYNMHWVKQTPGRGLEWIGAIYPGNGDTSYNQKFKGKATLTADKSSSTAYMQLSSLTSEDSAVYYCARSTYYGGDWYFNVWGAGTTVTVSA
VL: QIVLSQSPAILSASPGEKVTMTCRASSSVSYIHWFQQKPGSSPKPWIYATSNLASGVPVRFSGSGSGTSYSLTISRVEAEDAATYYCQQWTSNPPTFGGGTKLEIK
modifications: FITC-labeled rituximab

Legend:
CD20 (Homo sapiens) = CD20 (Homo sapiens) (UniProt P11836); settings: cited from earlier work
CD20 = biological target: T1, CD20

| Molecule | Kd (CD20 (Homo sapiens)) [nM] | Kd (CD20) [nM] |
| --- | --- | --- |
| rituximab | 4.96 | – |
| B1 | – | 4.82 |
